According to patent US20210155670A1 (University of California, published 2021):

B1: TAPBPR (luminal domain, C94A), TEV-digested (unzippered) (other)
chain: KPHPAEGQWRAVDVVLDCFLVKDGAHRGALASSEDRARASLVLKQVPVLDDGSLEDFTDFQGGTLAQDDPPIIFEASVDLVQIPQAEALLHADASGKEVTCEISRYFLQMTETTVKTAAWFMANVQVSGGGPSISLVMKTPRVAKNEVLWHPTLNLPLSPQGTVRTAVEFQVMTQTQSLSFLLGSSASLDCGFSMAPGLDLISVEWRLQHKGRGQLVYSWTAGQGQAVRKGATLEPAQLGMARDASLTLPGLTIQDEGTYICQITTSLYRAQQIIQLNIQASPKVRLSLANEALLPTLICDIAGYYPLDVVVTWTREELGGSPAQVSGASFSSLRQSVAGTYSISSSLTAEGSAGATYTCQVTHISLEEPLGASTQVVPPERRLEGAGGSGGGGSGGGASGGGGSENLYFQS
notes: also called un-zippered (TEV cleaved) TAPBPR; chaperone TAPBPR
B2: Whole Z2 construct (TAPBPR, JUN), leucine-zippered TAPBPR with Strep tags (other)
chain: KPHPAEGQWRAVDVVLDCFLVKDGAHRGALASSEDRARASLVLKQVPVLDDGSLEDFTDFQGGTLAQDDPPIIFEASVDLVQIPQAEALLHADASGKEVTCEISRYFLQMTETTVKTAAWFMANVQVSGGGPSISLVMKTPRVAKNEVLWHPTLNLPLSPQGTVRTAVEFQVMTQTQSLSFLLGSSASLDCGFSMAPGLDLISVEWRLQHKGRGQLVYSWTAGQGQAVRKGATLEPAQLGMARDASLTLPGLTIQDEGTYICQITTSLYRAQQIIQLNIQASPKVRLSLANEALLPTLICDIAGYYPLDVVVTWTREELGGSPAQVSGASFSSLRQSVAGTYSISSSLTAEGSAGATYTCQVTHISLEEPLGASTQVVPPERRLEGAGGSGGGGSGGGASGGGGSENLYFQSSGGGGSKVDGGGGGRIARLEEKVKTLKAQNSELASTANMLREQVAQLKQVMNWSHPQFEKGGGSGGGSGGSAWSHPQFEKAA

Columns and labels:
[1] = molecular target: T1, single-chain MHC-I (beta2 microglobulin-(GGGS)4-HLA-A*02:01 ectodomain-AviTag), TEV-digested (unzippered), … (human); assay: size exclusion chromatography after TEV cleavage
T1 construct: also called peptide receptive MHC-I complex; unzippered MHC-I

[2] = molecular target: single-chain HLA-A*24:02 (beta2 microglobulin-linker-HLA-A*24:02 ectodomain-AviTag), TEV-digested, CHO-derived (human); assay: co-expression, Strep tag purification, TEV digestion, size exclusion chromatography
[3] = molecular target: T2, Whole Z1 construct (B2m, HLA-A*02:01, FOS), leucine-zippered single-chain MHC-I (human); assay: co-expression in CHO cells, purification by the Strep tag on TAPBPR, SDS PAGE
T2 construct: also called single-chain-Fos; single-chain MHC-I-B2M protein

| Binder | binding result [1] | binding result [2] | binding result [3] |
| --- | --- | --- | --- |
| B1 | binds | binds |  |
| B2 |  |  | binds |
